Reference: US20100048677A1 (NEW YORK BLOOD CENTER, published 2010)

biological target: αIIb (INTEGRIN, ALPHA 2B; PLATELET GLYCOPROTEIN IIB OF IIB/IIIA COMPLEX, ANTIGEN CD41) (human) (UniProt P08514); test: αIIb complexes captured, mass spectrometry; No. Expts 1

HOMER HOMOLOG 3 (DROSOPHILA), sequence (Q9NSC5 whole entry): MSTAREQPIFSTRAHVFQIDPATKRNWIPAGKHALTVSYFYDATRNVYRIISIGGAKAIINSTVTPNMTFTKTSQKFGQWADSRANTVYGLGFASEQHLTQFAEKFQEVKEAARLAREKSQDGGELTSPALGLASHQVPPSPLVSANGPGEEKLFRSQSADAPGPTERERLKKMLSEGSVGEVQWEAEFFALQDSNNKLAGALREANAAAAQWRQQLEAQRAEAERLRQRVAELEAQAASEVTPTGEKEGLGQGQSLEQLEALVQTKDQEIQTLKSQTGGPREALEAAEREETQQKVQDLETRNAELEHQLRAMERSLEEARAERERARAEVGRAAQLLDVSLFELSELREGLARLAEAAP

| #Peptides | Substance |
| --- | --- |
| 13 peptides | UDP-GLUCOSE PYROPHOSPHORYLASE 1 (from UniProt Q16851 1-508) |
| 6 peptides | PRE-MRNA CLEAVAGE FACTOR I, 59 kDa SUBUNIT (from UniProt Q8N684 1-471) |
| 6 peptides | CNDP … 2 (METALLO… M20 FAMILY) (from UniProt Q96KP4 2-475) |
| 4 peptides | … CYCLASE 6 (from UniProt O43306 1-1168) |
| 32 peptides | NON-POU DOMAIN CONTAINING, OCTAMER-BINDING (from UniProt Q15233 1-471) |
| 1 peptides | HOMER HOMOLOG 3 (DROSOPHILA) (from UniProt Q9NSC5 1-361) |
| 5 peptides | TRYPTOPHANYL TRNA … 2 (from UniProt Q9UGM6 19-360) |
| 8 peptides | ACTININ, ALPHA 3 (from UniProt Q08043 1-901) |
| 4 peptides | 3-HYDROXY-3-METHYLGLUTARYL-COENZYME A SYNTHASE 1 (SOLUBLE) (from UniProt Q01581 1-520) |
| 2 peptides | STATHMIN-LIKE 3 (from UniProt Q9NZ72 1-180) |
| 4 peptides | TRANSLOCASE OF INNER MITOCHONDRIAL MEMBRANE 50 HOMOLOG (from UniProt Q3ZCQ8 45-353) |
| 10 peptides | NUDIX (NUCLEOSIDE DIPHOSPHATE LINKED MOIETY X)-TYPE MOTIF 19 (from UniProt A8MXV4 1-375) |
| 8 peptides | CHAPERONIN CONTAINING TCP1, SUBUNIT 4 (DELTA) (from UniProt P50991 2-539) |
| 8 peptides | UBR4 (ZINC FINGER, UBR1 TYPE 1) (from UniProt Q5T4S7 1-5183) |
| 3 peptides | KIAA0895 PROTEIN (from UniProt Q8NCT3 1-520) |
| 5 peptides | ATP CITRATE LYASE (from UniProt P53396 1-1101) |
| 4 peptides | C5orf25 (FLJ44216 PROTEIN) (from UniProt Q8NDZ2 1-872) |
| 25 peptides | DEHYDROGENASE E1 AND TRANSKETOLASE DOMAIN CONTAINING 1 (from UniProt Q96HY7 1-919) |

| #Peptides | Substance |
| --- | --- |
| 9 peptides | EXOSOME COMPONTENT 10 (from UniProt Q01780 1-885) |
| 5 peptides | FOUR AND A HALF LIM DOMAINS 1 (from UniProt Q13642 2-323) |
| 3 peptides | ENGULFMENT AND CELL MOTILITY 1 (from UniProt Q92556 1-727) |
| 2 peptides | PATCHED DOMAIN CONTAINING 2 (from UniProt Q9P2K9 1-1392) |
| 4 peptides | N-ACETYLGLUCOSAMINE KINASE (from UniProt Q9UJ70 2-344) |
| 13 peptides | …-TRNA … 2 (from UniProt O95363 1-451) |
| 15 peptides | LOC731751 (UNKNOWN PROTEIN) |
| 3 peptides | SEC23 HOMOLOG A (S. …) (from UniProt Q15436 2-765) |
| 15 peptides | HEAT SHOCK 70 kDa PROTEIN 1B (from UniProt P0DMV9 2-641) |
| 6 peptides | PROTEIN PHOSPHATASE 1, REGULATORY (INHIBITOR) SUBUNIT 9A (from UniProt Q9ULJ8 1-1098) |
| 7 peptides | COILED-COIL DOMAIN CONTAINING 50 (from UniProt Q8IVM0 2-306) |
| 28 peptides | KERATIN 16 (FOCAL NON-EPIDERMOLYTIC PALMOPLANTAR KERATODERMA) (from UniProt P08779 1-473) |
| 6 peptides | RB1-INDUCIBLE COILED-COIL 1 (from UniProt Q8TDY2 1-1594) |
| 2 peptides | ATP-BINDING CASSETTE, SUB-FAMILY A (ABC1), MEMBER 13 (from UniProt Q86UQ4 1-5058) |
| 1 peptides | CYCLIN K (from UniProt O75909 1-580) |
| 12 peptides | GEPHYRIN (from UniProt Q9NQX3 1-736) |
| 6 peptides | PRE-B-CELL COLONY … FACTOR 1 (from UniProt P43490 1-491) |
